Like-named read-outs stand apart in the source and are kept apart here.
B1: myc-LgBiT-IEEVD (peptide)
chain: GGSGIEEVD
B2: LgBiT-LWWPD (peptide)
chain: GGSGLWWPD
B3: LgBiT-IEEVD (peptide)
chain: GGSGIEEVD

Experiments:
Assay in all cases: split reporter
SmBiT-CHIP-FLAG = molecular target: SmBiT-CHIP-FLAG
SmBiT-CHIP [1] = molecular target: SmBiT-CHIP
SmBiT-CHIP [2] = molecular target: SmBiT-CHIP; remark: listed apart in the source
SmBiT-CHIP K30A = molecular target: SmBiT-CHIP K30A

Sequence of SmBiT-CHIP (Q9UNE7 whole entry): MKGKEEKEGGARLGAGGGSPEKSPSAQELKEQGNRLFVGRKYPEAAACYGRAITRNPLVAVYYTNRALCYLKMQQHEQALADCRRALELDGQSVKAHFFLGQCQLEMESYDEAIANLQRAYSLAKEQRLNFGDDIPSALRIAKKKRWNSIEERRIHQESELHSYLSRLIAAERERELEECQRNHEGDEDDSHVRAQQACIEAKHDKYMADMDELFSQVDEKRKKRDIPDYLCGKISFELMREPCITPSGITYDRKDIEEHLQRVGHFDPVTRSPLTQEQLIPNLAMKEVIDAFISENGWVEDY
Sequence of SmBiT-CHIP-FLAG (Q9UNE7 whole entry): as above

| luminescence with dox (SmBiT-CHIP-FLAG) | fold increase in luminescence over the negative control (SmBiT-CHIP [1]) | fold increase in luminescence over the negative control (SmBiT-CHIP [2]) | fold increase in luminescence over the negative control (SmBiT-CHIP K30A) | Binder |
| --- | --- | --- | --- | --- |
| 47300 RLU | – | – | – | B1 |
| – | 300 fold | – | – | B2 |
| – | 180 fold | 160 to 180 fold | 97 fold | B3 |

— PMC8054679
